Results reported in paper PMC10397247.

How the values were obtained:
Test in all cases: two-hybrid library CCmax;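 also: natural log of median RNA to DNA barcode read ratio; higher means stronger binding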
P1-AA-1HGe-S = biological target: T1, P1-AA-1HGe-S; conditions: mean of both orientations
T1 chain: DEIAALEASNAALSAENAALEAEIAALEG

4H465-AA = biological target: T2, 4H465-AA; conditions: mean of both orientations
T2 chain: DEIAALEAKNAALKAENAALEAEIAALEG

P1-AA-1HGe-Y = biological target: T3, P1-AA-1HGe-Y; conditions: mean of both orientations
T3 chain: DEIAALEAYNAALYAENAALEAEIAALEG

4H3705-AA = biological target: T4, 4H3705-AA; conditions: mean of both orientations
T4 chain: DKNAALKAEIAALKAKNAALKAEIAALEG

4H2898-AA = biological target: T5, 4H2898-AA; conditions: mean of both orientations
T5 chain: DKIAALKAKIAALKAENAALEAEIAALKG

P1-AA-1HGe-W = biological target: T6, P1-AA-1HGe-W; conditions: mean of both orientations
T6 chain: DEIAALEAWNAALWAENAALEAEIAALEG

P1-AA-1HGe-D = biological target: T7, P1-AA-1HGe-D; conditions: mean of both orientations
T7 chain: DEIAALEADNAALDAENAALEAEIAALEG

GCN2_T = biological target: GCN2_T
4H58-AA = biological target: T8, 4H58-AA; conditions: mean of both orientations
T8 chain: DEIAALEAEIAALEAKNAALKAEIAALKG

4H2750-AA = biological target: T9, 4H2750-AA
T9 chain: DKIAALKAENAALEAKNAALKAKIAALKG

P1-AA-1HGe-A = biological target: T10, P1-AA-1HGe-A; conditions: mean of both orientations
T10 chain: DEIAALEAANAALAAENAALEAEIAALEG

P1-AA = biological target: T11, P1-AA; conditions: mean of both orientations
T11 chain: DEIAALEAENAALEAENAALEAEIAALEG

4H3365-AA = biological target: T12, 4H3365-AA; conditions: mean of both orientations
T12 chain: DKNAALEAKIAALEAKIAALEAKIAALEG

4H535-AA = biological target: T13, 4H535-AA; conditions: mean of both orientations
T13 chain: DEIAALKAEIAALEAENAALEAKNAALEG

4H3020-AA = biological target: T14, 4H3020-AA; conditions: mean of both orientations
T14 chain: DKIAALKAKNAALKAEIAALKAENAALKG

P1-AA-1HGe-R = biological target: T15, P1-AA-1HGe-R; conditions: mean of both orientations
T15 chain: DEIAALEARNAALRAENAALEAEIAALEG

4H_BCR = biological target: T16, 4H_BCR; conditions: mean of both orientations
T16 chain: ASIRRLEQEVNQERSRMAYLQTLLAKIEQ

P1-AA-1HGe-H = biological target: T17, P1-AA-1HGe-H
T17 chain: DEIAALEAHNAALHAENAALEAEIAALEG

4H486-AA = biological target: T18, 4H486-AA; conditions: mean of both orientations
T18 chain: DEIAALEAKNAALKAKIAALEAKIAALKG

4H3651-AA = biological target: T19, 4H3651-AA; conditions: mean of both orientations
T19 chain: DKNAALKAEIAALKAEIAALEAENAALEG

P1-AA-1HGe-M = biological target: T20, P1-AA-1HGe-M; conditions: mean of both orientations
T20 chain: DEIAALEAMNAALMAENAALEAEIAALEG

4H355-AA = biological target: T21, 4H355-AA; conditions: mean of both orientations
T21 chain: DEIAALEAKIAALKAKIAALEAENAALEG

4H3782-AA = biological target: T22, 4H3782-AA; conditions: mean of both orientations
T22 chain: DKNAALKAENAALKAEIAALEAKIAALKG

4H_GCN4 = conditions: mean of both orientations
4H895-AA = biological target: T23, 4H895-AA; conditions: mean of both orientations
T23 chain: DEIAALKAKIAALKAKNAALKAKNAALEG

P1-AA-1HGe-Q = biological target: T24, P1-AA-1HGe-Q; conditions: mean of both orientations
T24 chain: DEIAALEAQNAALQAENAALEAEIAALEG

P1-AA-1HGe-T = biological target: T25, P1-AA-1HGe-T; conditions: mean of both orientations
T25 chain: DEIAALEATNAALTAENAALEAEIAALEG

4H_APH = biological target: T26, 4H_APH; conditions: mean of both orientations
T26 chain: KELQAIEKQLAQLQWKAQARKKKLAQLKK

4H_GCN4, sequence (chain, as listed by the source): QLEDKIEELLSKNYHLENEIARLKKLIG

B1: 4H2750-AA (peptide)
chain: DKIAALKAENAALEAKNAALKAKIAALKG
interaction score (P1-AA-1HGe-S): 1.86 | interaction score (4H465-AA): 2.28 | interaction score (P1-AA-1HGe-Y): 2.03 | interaction score (4H3705-AA): -0.91 | interaction score (4H2898-AA): 1.97 | interaction score (P1-AA-1HGe-W): 2.15 | interaction score (P1-AA-1HGe-D): 2.05 | interaction score (GCN2_T): -1.81 | interaction score (4H58-AA): -0.465 | interaction score (4H2750-AA): -1.55 | interaction score (P1-AA-1HGe-A): 2.11 | interaction score (P1-AA): 1.56 | interaction score (4H3365-AA): -1.78 | interaction score (4H535-AA): -1.08 | interaction score (4H3020-AA): -1.5 | interaction score (P1-AA-1HGe-R): 2.26 | interaction score (4H_BCR): -1.7 | interaction score (P1-AA-1HGe-H): 1.92 | interaction score (4H486-AA): 1.13 | interaction score (4H3651-AA): -1.22 | interaction score (P1-AA-1HGe-M): 2.44 | interaction score (4H355-AA): -0.643 | interaction score (4H3782-AA): -0.13 | interaction score (4H_GCN4): -1.33 | interaction score (4H895-AA): -1.79 | interaction score (P1-AA-1HGe-Q): 2.33 | interaction score (P1-AA-1HGe-T): 2.06 | interaction score (4H_APH): -2.38
